How the values were obtained:
human BiP = target: T1, human BiP (Homo sapiens, UniProt P11021); experiment: ELISA: binding of BiP-FLAG-His to immobilized (misfolded) protein ligands; conditions: ligands coated at 5 μg/ml; 6BB peptides and oxLDL 50 μg/ml
T1 construct: The human BiP gene except the signal peptide encoding region was obtained from Geneart (Germany); linker […]; made in house; host or cells: HEK 293E cells, transient transfection, PABC674 vector; secreted into the medium
Outline: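 Ligands were coated at 5 μg/ml (50 μg/ml for 6BB# peptides and oxLDL) in 50 mM NaHCO3 pH 9.6, blocked, then incubated in triplicate with BiP-FLAG-His dilution series for 1 h at room temperature. Bound BiP was detected with peroxidase anti-FLAG M2 and TMB, stopped after 5 min and read at 450 nm. Buffer-only and chaperone-omitted background signals were subtracted.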

[1] = target: T2, Escherichia coli HSP70 family member DnaK (Escherichia coli, UniProt P0A6Y8); experiment: ELISA: binding of DnaK to immobilized (misfolded) protein ligands
T2 construct: purchased Stressgen (Ann Arbor, Mich., USA) SPP-630
Description: Recombinant Escherichia coli (E. coli) DnaK was purchased from Stressgen (Ann Arbor, Mich., USA; SPP-630). For the binding studies first lot B502468 (100 μg, lot A) and then lot 05240609 (200 μg, lot B) was used.
Binding of chaperones to immobilized (misfolded) protein ligands was determined using an enzyme linked immuno sorbent assay (ELISA) approach. For this purpose 50 μl/well of potential ligands at indicated concentrations or coat buffer only for control and background measurement purposes, were coated overnight at 4° C. or coated for 1 h at room temperature, with motion, in 50 mM NaHCO3 pH 9.6 (coat buffer). In general, ligands were coated at 5 μg/ml, unless stated otherwise. For example, BiP binding peptides 6BB# and oxLDL were coated at 50 μg/ml. Native haemoglobin (Sigma-Aldrich, H7379), albumin, IgIV Gammagard and ovalbumin controls were prepared from lyophilized stocks. The controls were prepared by dissolving lyophilized proteins at 1 mg/ml in PBS upon resuspending by pipetting, followed by a 30 minutes period at the roller device, at room temperature. The protein solutions were centrifuged for 10 minutes at 16,000*g and diluted in coat buffer. After coating the plates were washed at least three times with 50 mM Tris-HCl pH 7.3, 150 mM NaCl, 0.1% v/v Tween20, and blocked with Blocking reagent (Roche Diagnostics, Almere, The Netherlands; 11112589001), for 1 h at room temperature, with motion. Plates were washed three times and incubated in triplicate with indicated chaperone dilution series, at 50 μl/well, for 1 h at room temperature, with constant motion. For HSP90, 5 mM DTT is incorporated in the binding buffer (PBS/0.1% Tween20) to avoid unwanted disulfide bond formation of the HSP90. Plates were washed three times and incubated with anti-FLAG antibody (mouse antibody, M2, peroxidase conjugate; Sigma, A-8592) for BiP-FLAG-His, anti-His-tag antibody (Mouse Monoclonal Antibody, Cat. No. 70796, Novagen [0.2 mg/ml]) for HSP60, a 1:1 mix of 500-fold diluted anti-HSP90beta antibodies (Stressgen, SPA-643 [mouse monoclonal IgM], SPA-646 [rabbit polyclonal]) for HSP90 and an anti-DnaK antibody (Stressgen, 023SPA-880D [mouse monoclonal antibody]) for DnaK. After four wash cycles, secondary antibodies were added to the wells when required, 50 μl/well, for 45′ at room temperature, with motion. RAMPO and SWARPO were used at 3000 times dilution. […] In a second experiment with more immobilized misfolded proteins and controls, the detection of bound HSP90 with the mix of two anti-HSP90 antibodies was achieved by mixing 1:1500 SWARPO with 1:3000 RAMPO. After 5 washes with wash buffer followed by two washes with PBS, binding of antibodies was assessed. Bound anti-FLAG-PO, peroxidase-conjugated rabbit anti-mouse immunoglobulins (RAMPO, P0260, DAKOCytomation, Glostrup, Denmark) or peroxidase-coupled swine anti-rabbit immunoglobulins (SWARPO, P0217, DAKOCytomation) was visualized with tetramethylbenzidine (TMB, #45.01.20,/#45.014.01, Biosource, Nivelles, Belgium). The reaction was stopped after 5 minutes with 1% H2SO4 in H2O. Plates were read at 450 nm. Triplicates were averaged and standard deviations calculated. Background signals obtained with buffer-coated wells were subtracted (binding of primary antibody to empty wells), as well as background signals obtained with ligand-coated wells in which the chaperones were omitted (binding of primary and secondary antibody to coated ligands). Subsequently, sub-optimal concentrations of chaperones for binding to misfolded protein ligands are determined, and these concentrations are used for inhibition studies. […] We have previously identified that a sub-fraction of IgIV molecules has affinity for misfolded proteins comprising crossbeta structure (pending patent application). Moreover, we identified that the sub-fraction of IgIV molecules directly binds to crossbeta structure and/or crossbeta structure induced conformation (not shown; pending patent application). […]

T2 sequence (P0A6Y8 whole entry): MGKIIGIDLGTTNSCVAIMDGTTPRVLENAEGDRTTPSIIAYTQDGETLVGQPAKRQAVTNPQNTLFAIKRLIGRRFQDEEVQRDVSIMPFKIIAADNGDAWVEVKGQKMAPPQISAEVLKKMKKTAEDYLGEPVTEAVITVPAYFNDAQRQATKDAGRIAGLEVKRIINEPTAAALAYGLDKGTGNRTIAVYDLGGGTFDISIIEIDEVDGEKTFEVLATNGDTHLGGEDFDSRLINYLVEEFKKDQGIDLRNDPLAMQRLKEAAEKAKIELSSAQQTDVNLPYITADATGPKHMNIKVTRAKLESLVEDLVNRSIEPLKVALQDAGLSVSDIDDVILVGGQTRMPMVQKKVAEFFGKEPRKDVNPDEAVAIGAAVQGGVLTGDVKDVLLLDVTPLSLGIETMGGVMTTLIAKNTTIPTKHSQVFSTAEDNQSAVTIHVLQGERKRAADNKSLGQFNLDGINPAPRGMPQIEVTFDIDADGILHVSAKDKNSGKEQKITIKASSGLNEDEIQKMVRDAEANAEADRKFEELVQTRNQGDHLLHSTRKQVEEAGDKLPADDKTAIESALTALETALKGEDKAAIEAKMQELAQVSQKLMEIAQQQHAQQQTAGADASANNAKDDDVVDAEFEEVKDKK
T1 sequence (P11021 19-654): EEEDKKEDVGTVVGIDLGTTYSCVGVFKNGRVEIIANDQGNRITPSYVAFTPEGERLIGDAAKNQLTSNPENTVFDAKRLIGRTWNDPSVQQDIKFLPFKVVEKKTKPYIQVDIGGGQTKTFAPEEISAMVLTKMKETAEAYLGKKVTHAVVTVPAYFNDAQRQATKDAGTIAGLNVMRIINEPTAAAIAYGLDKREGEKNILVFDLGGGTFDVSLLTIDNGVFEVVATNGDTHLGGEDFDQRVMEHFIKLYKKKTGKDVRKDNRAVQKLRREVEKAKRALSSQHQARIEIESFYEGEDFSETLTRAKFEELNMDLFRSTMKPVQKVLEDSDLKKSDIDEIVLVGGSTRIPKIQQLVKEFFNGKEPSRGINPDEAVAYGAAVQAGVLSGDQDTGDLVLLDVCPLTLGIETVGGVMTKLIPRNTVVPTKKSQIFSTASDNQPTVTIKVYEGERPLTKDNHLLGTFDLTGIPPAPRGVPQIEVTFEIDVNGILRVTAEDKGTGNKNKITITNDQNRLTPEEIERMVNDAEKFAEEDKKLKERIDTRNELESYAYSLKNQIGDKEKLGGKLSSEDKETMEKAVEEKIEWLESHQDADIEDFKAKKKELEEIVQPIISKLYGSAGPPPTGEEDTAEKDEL

GSNKGAIIGLM [6BB6, Human Aβ (25-35)]
Binding of concentration series of BiP to coated ligand (human BiP): has been established
Binding of concentration series of DnaK to coated ligand [1]: has been established

KLVFFAE [6BB12, Human Aβ16-22]
Binding of concentration series of BiP to coated ligand (human BiP): no BiP binding was observed
Binding of concentration series of DnaK to coated ligand [1]: did not bind

native BSA: non-modified bovine serum albumin control
Binding of concentration series of BiP to coated ligand (human BiP): did not bind
Binding of concentration series of DnaK to coated ligand [1]: No binding

BSA-AGE
Binding of concentration series of BiP to coated ligand (human BiP): has been established
Binding of concentration series of DnaK to coated ligand [1]: has been established

Hb: non-modified human haemoglobin control
Binding of concentration series of BiP to coated ligand (human BiP): did not bind
Binding of concentration series of DnaK to coated ligand [1]: Low binding

HbAGE: human haemoglobin glycated with glucose-6-phosphate for 75 weeks
Binding of concentration series of BiP to coated ligand (human BiP): has been established
Binding of concentration series of DnaK to coated ligand [1]: has been established

AGEYYAAL [6BB7]
Binding of concentration series of BiP to coated ligand (human BiP): did not bind
Binding of concentration series of DnaK to coated ligand [1]: No binding

— US20100015126A1, “Methods of Binding of Cross-Beta Structures By Chaperones” (priority 2006, published 2010)
